Article PMC5009064 (Cell Reports, 2016)

Experiments:
HOIP-PUB domain [1] = target: T1, HOIP-PUB domain (UniProt Q96EP0 71-142); test: ITC
T1 chain: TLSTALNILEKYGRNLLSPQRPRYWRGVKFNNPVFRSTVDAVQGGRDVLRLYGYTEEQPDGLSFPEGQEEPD

HOIP-PUB domain [2] = target: T2, HOIP-PUB domain (UniProt Q96EP0 71-142); test: ITC; 293 K, ITC-200; 25 mM HEPES pH 7.5, 150 mM NaCl, 0.5 mM TCEP; 20 injections of 2 ul HOIP-PUB domain into peptide or domain in the cell; 1:1 binding model; settings: both partners purified
T2 construct: PUB domain of HOIP, as used for ITC; also called PUB domain of HOIP
T2 sequence (looked up): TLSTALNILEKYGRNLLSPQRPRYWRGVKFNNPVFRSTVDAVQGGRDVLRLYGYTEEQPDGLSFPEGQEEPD

HOIP-PUB domain [3] = target: T3, HOIP-PUB domain (Homo sapiens, UniProt Q96EP0); test: ITC of HOIP-PUB domain titrated into peptide or protein; type: binding; settings: 398 μM HOIP-PUB domain titrated into CYLD-USP domain at 40 μM; 293 K; 25 mM HEPES (pH 7.5), 150 mM NaCl, 0.5 mM TCEP
T3 sequence (Q96EP0 71-142 limits assumed): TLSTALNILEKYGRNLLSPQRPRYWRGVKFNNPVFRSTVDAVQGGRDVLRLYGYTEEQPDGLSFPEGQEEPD
Procedure: (B) ITC characterization of the interactions between (A) the HOIP-PUB domain (597 μM) and a peptide derived from the PIM motif (58 μM) of OTULIN and (B) the HOIP-PUB domain (398 μM) and the CYLD-USP domain (40 μM). For each titration, the raw data and normalized integrated heats are reported. (C) HEK293 cells were transfected with different combinations of CYLD, SPATA2, and OTULIN together with FLAG-HOIP. Protein complexes were subsequently purified using anti-FLAG beads and analyzed by western blotting. (D) SPATA2 expression was suppressed in FLAG-HOIP transfected HEK293 cells using siRNA. FLAG-HOIP was subsequently immunoprecipitated and tested for associated proteins by western blot analysis. (E) A549 cells were transfected with control or SPATA2 siRNA. After 72 hr, cells were subjected to TNFR1-SC purification and analyzed by western blotting. […] They name protein/peptide pairs, not small molecules. / Panel B, Kd: the lowered letter after K is small; read as d.
Samples were subsequently analyzed by western blotting. (B) HOIP-deficient A549 cells were reconstituted with HOIP-WT or HOIP-N102A. […] Samples were analyzed by western blotting. […] Following anti-GFP IP, SPATA association with HOIP and CYLD was evaluated by western blot analysis. […] Bound GST-containing protein was subsequently detected by HRP immunofluorescence, and the signal of both membranes was overlaid. […]

AEHEEDMYRA [peptide derived from the PIM motif of OTULIN]
Kd (HOIP-PUB domain [1]): 3.2 µM

B1: peptide derived from the C-terminal region of SPATA2 (peptide)
peptide: RGTYFSTQDDVDLYTDSEPR
notes: SPATA2 PIM peptide; also called SPATA2 peptide; PIM of SPATA2
Kd (HOIP-PUB domain [2]): 0.9 µM

B2: CYLD-USP: USP domain of CYLD, protein domain titrated by ITC (protein)
chain: KGIQGHYNSCYLDSTLFCLFAFSSVLDTVLLRPKEKNDVEYYSETQELLRTEIVNPLRIYGYVCATKIMKLRKILEKVEAASGFTSEEKDPEEFLNILFHHILRVEPLLKIRSAGQKVQDCYFYQIFMEKNEKVGVPTIQQLLEWSFINSNLKFAEAPSCLIIQMPRFGKDFKLFKKIFPSLELNITDLLEDTPRQCRICGGLAMYECRECYDDPDISAGKIKQFCKTCNTQVHLHPKRLNHKYNPVSLPKDLPDWDWRHGCIPCQNMELFAVLCIETSHYVAFVKYGKDDSAWLFFDSMADRDGGQNGFNIPQVTPCPEVGEYLKMSLEDLHSLDSRRIQGCARRLLCDAYMCMYQSP
direct interaction by ITC (HOIP-PUB domain [3]): could not detect a direct interaction
